From the nanobody polyreactivity screen of Harvey et al. (2022)

Test: yeast display, Sf9 membrane polyspecificity reagent, FACS + sequencing; frameworks hold sequencing errors
Procedure, shortened: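 Galactose-induced (36–48 hours) yeast carrying a synthetic nanobody display library were exposed to 10% biotinylated, detergent-solubilized Sf9 membrane reagent at 4 °C for 1 hour. FACS followed streptavidin microbead enrichment, using low and high (top ~1%) gates for expression (anti-HA) and reagent binding (streptavidin). Colony PCR, MiSeq 2 × 250 sequencing and CDR-length filtering followed. Labels for polyreactivity reflect the gate of origin.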

| Sequence | polyreactivity (PSR sort gate) |
| --- | --- |
| QVQLVESGGGLVQAGGSLRLSCAASGSTFCRNAMGWYRQAPGKEREFVAVISISSGTTYADSVKGRFTISRDNAKNTVYLQMNSMKPEDTAVYYCAAAIGVYYIDYRYLGTVEYWGQGTQGTVSS | low polyreactivity |
| QVQLVESGGGLVQAGGSLRLSCAASGSTFCSYVMGWYRQAPGKERELVAAISSIGGSTYYADSVKGRFTISRDNAKNTVYLQMNSLKPEDTAVYYCAAEPPGSPYEGGYWGQGTQVTVSS | low polyreactivity |
| QVQLVESGGGLVQAGGSLRLSCAASGSTFCYYAMGWYRQAPGKERELLAAITRSGGRTYYADSVKGRFTISRDNAKNTVYLQMNSLKPEDTAGYYCAADSRVGFGRLYGYWGQGTQVTVSS | high polyreactivity |
| QVQLVESGGGLVQAGGSLRLSCAASGSTFDENAMGWYRQAPGKERELVAVISDSGGSTYYADSVKGRFTISRDYAKNTVYFQMNSLKPEDTAVYYCAKDVPPEYPTSSYDYWGQGSQVTVSS | low polyreactivity |
| QVQLVESGGGLVQAGGSLRLSCAASGSTFDFNAMGWSRQAPGKERELVAAITYSGGSTYYADSVKGRFTISRDNAKNTVYLKMNSLKPEDTAVYYCAAEDVYPGSIDMDYWGQGTQVTVSS | low polyreactivity |
| QVQLVESGGGLVQAGGSLRLSCAASGSTFDFYAMGLYRQAPGKERELVAAITSGGTTNYADSVKGRFTISRDNAKNTVYLQMNSLKPEDTAVYFCNAYYLGWYRVRAVTGYDYCGQGTQVTVSS | low polyreactivity |
| QVQLVESGGGLVQAGGSLRLSCAASGSTFDFYAMGWYRQAPGKERELVAAISWSAGSTYYADSVKGRFTISRDIAKNTVYLQMNSLKPEDTAVYYCNADYWGQGTQVTVSS | low polyreactivity |
| QVQLVESGGGLVQAGGSLRLSCAASGSTFDGNAMGWYRQAPGKERELVAAITWRDGSTSYADSVKGRFTISRDNAKNTVYLQMNSLKPEDTAVYYCAADYEVYQVASAFDYWGQGTQVTVSS | low polyreactivity |
| QVQLVESGGGLVQAGGSLRLSCAASGSTFDGYAMGWYRQAPGKERELVAAISRSGGRTYYADSVKGRFTISRDNAKNTVYLQMNSLKPEDTAVYYCAALYPYKREDYWGQGTQVTVSS | high polyreactivity |
| QVQLVESGGGLVQAGGSLRLSCAASGSTFDGYAMGWYRQAPGKERELVAAISSSGAYTYYADSVKGRFTISRDIAKNTVFLQMNSLKPEDTAVYYCNRVTYQQKNDYCGQGTQVTVSS | high polyreactivity |
| QVQLVESGGGLVQAGGSLRLSCAASGSTFDGYTMGWYRQAPGKERELVAGISWSGTSTYYADSVKGRFTISRDNAKNTVYLQMNSLKPEDTAVYYCAADRYWFRLYTAGVTHRFGYWGQGTQVTVSS | low polyreactivity |
| QVQLVESGGGLVQAGGSLRLSCAASGSTFDINTMGWYRQAPGKEREFVAAITDSDDSTYYADSVKGRFTISRDNAKNTVYLQMNSLKPEDTAVYYCAHDYDGYVWDTEYDYWGQGTQVTVSS | low polyreactivity |
| QVQLVESGGGLVQAGGSLRLSCAASGSTFDINTMGWYRQAPGKEREFVAAITDSDDSTYYADSVKGRFTISRDNAKNTVYLQMNSLKPEDTAVYYCNYDYWGQGTQVTVSS | low polyreactivity |
| QVQLVESGGGLVQAGGSLRLSCAASGSTFDKYPLGWYRQAPGKERELVAAITWGGGSTYYADSVKGRFTISRDNAKNTVYLQMNSLKPEDTAVYYCAAEQGSSVLYDSWGQGTQVTVSS | low polyreactivity |
| QVQLVESGGGLVQAGGSLRLSCAASGSTFDKYTMGWYRQAPGKERELVATISRSGTSTNYADSVKGRFTISRDNAKNTVYLQLNSLKPEDTAVYYCAAVMRWRDLFSEYYYWGQGTQVTVSS | high polyreactivity |
| QVQLVESGGGLVQAGGSLRLSCAASGSTFDLNAMGWYRQAPGKERELVARISSVGSTNYADSVKGRFTISRDNAKNTVYLQMNSLKPEDTAVYYCNAGFWDLYDYWGQGTQVTVSS | low polyreactivity |
| QVQLVESGGGLVQAGGSLRLSCAASGSTFDLNAMGWYRQAPGKERELVARITSSTGRTFYADSVKGRFTISRDNAKNTVYLQMNSLKPEDTAVYYCNTVGHGYSPPVNRSKMDYWGQGTQVTVSS | low polyreactivity |
| QVQLVESGGGLVQAGGSLRLSCAASGSTFDNYAMGWYRQAPGKERELVAVITQSGGITFYADSVKGRFTISRDNAKNTVYLQMNSLKPEDTAVYYCNVELDRSWYYYWGQGTQVTVSS | low polyreactivity |
| QVQLVESGGGLVQAGGSLRLSCAASGSTFDPNAMGWYRQAPAKERELVAAISYTGGRTYYADSVKGRFTISRDNAKNTVYLQMNSLKPEDTAVYYCAVLVVGSTTQDEPYFSGVEHDYWGQGTQVTVSS | low polyreactivity |
| QVQLVESGGGLVQAGGSLRLSCAASGSTFDPNVMGWYRQAPGKERELVAAITWSGGSTSYADSVKGRFTISRDNAKNTVYLQMNSLKPEDTAVYYCAADWHSWRWGYYYWGQGTQVTVSS | low polyreactivity |
| QVQLVESGGGLVQAGGSLRLSCAASGSTFDPNVMGWYRQAPGNERELVADITTTGVSTYYADSVKGRFTISRDNAKNTVYLQMNSLKPEDTAVYYCNAKLYWYLTRDAYRYRYTYDYWGQGTQVTVSS | low polyreactivity |
| QVQLVESGGGLVQAGGSLRLSCAASGSTFDQYAMGWYRQAPGKERELVAAISWSGGRTSYAVSVKGRFTISRDTAKNTVYLQMNSLKPEDTAVYYCAADLWFWGFHYPSRMDYWGQGTQVTVSS | high polyreactivity |

| Sequence | polyreactivity (PSR sort gate) |
| --- | --- |
| QVQLVESGGGLVQAGGSLRLSCAASGSTFDRNAMGWYRQAPWKERELVATINSDDSKNYADSVKGRFTISRDNAKNTVYLQMNSLKPEDTAVYYCAARLYVTPILSYVERYTNDYWGQGTQVTVSS | low polyreactivity |
| QVQLVESGGGLVQAGGSLRLSCAASGSTFDRNVMGWNRQAPGKERELVAAISRVSSTNYADSVKGRFTISRDNAKNTVYLQMHSLKPEDTAVYYCAADRAGSIMNYWGQGSQVTVSS | low polyreactivity |
| QVQLVESGGGLVQAGGSLRLSCAASGSTFDRNVMGWYRQAPGKERELVAAISRVSSTNYADSVKGRFTISRDNAKNTVYLQMNSLKPEDTAVYYCNARRESYYQRYRVDYWGQGTQVTVSS | low polyreactivity |
| QVQLVESGGGLVQAGGSLRLSCAASGSTFDRYGMGWYRQAPGKERELVAAITWSVGSTYYADSVKGRFTISRDNAKNTVYLQMNSLKPEDTAVYYCNAGVLGVYTSYNGDDYWGQGTQVTVST | low polyreactivity |
| QVQLVESGGGLVQAGGSLRLSCAASGSTFDRYGMGWYRQAPGKERELVARITSSGASTYYADSVKGRFTISRDNAMNTVYLQMNSQKPEDTAVYYCAADEGYPGDGDYWGQGTQVTVSS | low polyreactivity |
| QVQLVESGGGLVQAGGSLRLSCAASGSTFDSNAMGWYRQAPGKERELVAAIRFSGGSTNYADSVKGRFTISRDNAKNTVYLQMNSLKPEDTAVYYCAARYPNLRRRWYYYWGQGTQVTVSS | high polyreactivity |
| QVQLVESGGGLVQAGGSLRLSCAASGSTFDSNVMGWYRQAHGKERELLAAINYSGVRTYYADSVKGRFTISRDNAKNTVYLQMNSLKPEDTAVYYCNARLFSYRYPEGGYWGQGTQVTVSS | high polyreactivity |
| QVQLVESGGGLVQAGGSLRLSCAASGSTFDSYAMGWYRQAPGKERELVAALSYNGSSTDYADSVKGRFTISRDNAKNTVDEQMNSLKPEDTAVYYCAAAPGFSAGHHDYWGQGTQVTVSS | low polyreactivity |
| QVQLVESGGGLVQAGGSLRLSCAASGSTFDTNAMGWYRQAPGKERELVAAISWSRDRTYYADSVKGRFTISRDNAKNTVYLQMNSLNPEDTAVYYCNAYLSFRRQYGYWGQGTQGTVSS | high polyreactivity |
| QVQLVESGGGLVQAGGSLRLSCAASGSTFDTNDMGWDRQAPGKERELVAAISSGGDYADSVKGRFTISRDNAKNTVYLQLNSLKPEDTAVYYCAKADTKWGQGTQVTVSS | low polyreactivity |
| QVQLVESGGGLVQAGGSLRLSCAASGSTFDTYAKGWYRQAPGQERELVAAISYRGGNTYYADSVKGRFTISRDNAKNTVYLQMNSLKPEDTAVYYCNAGVSIGRSRRYDYWGQGTHVTVSS | low polyreactivity |
| QVQLVESGGGLVQAGGSLRLSCAASGSTFDTYAMGWYRQAPGKERELVAAINSGGGTNYADSVKGRFTISRDNAKNTVYLQMNSLKPEDTAVYYCATDSRRDAGGGDFDYWGQGTQVTVSS | low polyreactivity |
| QVQLVESGGGLVQAGGSLRLSCAASGSTFDTYAMGWYRQAPGKERELVAAISSGGSTNYADSVKGRFTISRDNAKNTVYLQMNSLKPEDTAVYYCADSYKSVFPVYGTLDEYWGQGTQVTVSS | low polyreactivity |
| QVQLVESGGGLVQAGGSLRLSCAASGSTFDVNAMGWYRQAPGKERELVAAISFSGGSTYYADSVKGRFTISRDNAKNTVYLQMNSLKPEDTAVYYCAAEEWRSYYEEYDYWGQGTQVTVSS | low polyreactivity |
| QVQLVESGGGLVQAGGSLRLSCAASGSTFDVNAMGWYRQAPGKERELVAAISWNSGSTYYADSVKGRFTISRDNAMITVFLQMNSLKPEDTAVYYCAATYGTGRRSKYGYWGQGSQVTVSS | high polyreactivity |
| QVQLVESGGGLVQAGGSLRLSCAASGSTFDVNAMGWYRQAPGKERELVAVITSGGSTNYADSVKGRFTISRDNAKNTVYLQMNRLKPEDTAVYYCAKDSRTLYDYWGQGTQVTVSS | low polyreactivity |
| QVQLVESGGGLVQAGGSLRLSCAASGSTFDVYAMGWYRQAPGKERELVAAIRSSGGSTFYADSVKGRFTISRDNAKNIVYLQMNSLKPEDTAVYYCAARSFVVSGYNKYYEYGYWGQGTQVTVSS | low polyreactivity |
| QVQLVESGGGLVQAGGSLRLSCAASGSTFDVYAMGWYRQAPGKERELVAAITWDGDRTYYADSVKGRFTISRDNAKNTVYLQMNSLKPEDTAVYYCNVDTYVEYPHDYWGQGTQVTVSS | low polyreactivity |
| QVQLVESGGGLVQAGGSLRLSCAASGSTFDWYAMGWYRQAPGKERELVAAISRGSRTYYADSVKGRFTISRDNAKNTVYLQKNSLKPEDTAVYYCARDKPTSYPDYYYWGQGTQVTVSS | high polyreactivity |
| QVQLVESGGGLVQAGGSLRLSCAASGSTFDWYAMGWYRQAPGKERELVARIRWSGGSTYYADSVKGRFTISRDNAKNTVYLQMNSLKPEDTAVYYCAARTQTWPQYGYWGQGTQVTVSS | high polyreactivity |
| QVQLVESGGGLVQAGGSLRLSCAASGSTFDWYAMGWYRQATGKETELVAAISWSDTSTYYADSVKGRFTISRDNAKNTVYLKMNSLKPEDTAVYYCNDEALYYYDSYDYWGQGTQVTVSS | high polyreactivity |
